From the supplement of paper PMC10126150
± gives the standard deviation of the averaged measurements.

Each sequence was assayed on ATP (assay: switch fluorescence ratio, 500 uM ATP over buffer (Cy3 cluster intensity, sum of 5 cycles each) (fold (ratio)); higher = stronger signal-on switching upon ATP binding; sequences stand for … in TCGTCGGCAGCGTCAGATGTGTATAAGAGACAGTTTTTTTTTTTTTTTTTTTTTTTTT…TC). Conditions: aptamer strand: ATP DNA aptamer (quencher-CACCTGGGGGAGTATTGCGGAGGAAGG + anchor), 100 nM annealed; ATP concentration: 500 uM.
Procedure, shortened: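 Cy3-labelled switching-strand clusters on a modified Illumina MiSeq flow-cell were annealed to 100 nM quencher-labelled ATP aptamer and imaged first in selection buffer, then after 15 min with 500 uM ATP at 22 °C. NaOH stripping and re-annealing separated each of five buffer/ATP cycles, and clusters outside 100-1000 RFU were excluded. The fluorescence ratio sums target-cycle Cy3 intensity over buffer-cycle Cy3 intensity per cluster and averages it per switch-domain sequence.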
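Further: ATP exposure 15 min at 22 °C before imaging.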

| Sequence | switch fluorescence ratio |
| --- | --- |
| GGGTTGAGGG | 1 ± 0.027 |
| GGGTTGAGTT | 0.9849 ± 0.0035 |
| GGGTTGATGC | 1.02 ± 0.041 |
| GGGTTGCATG | 0.976 ± 0.016 |
| GGGTTGCCCT | 0.982 ± 0.033 |
| GGGTTGCTGT | 1.03 ± 0.1 |
| GGGTTGGGAG | 0.998 ± 0.044 |
| GGGTTGGGAT | 0.995 ± 0.021 |
| GGGTTGGGTT | 1.05 ± 0.18 |
| GGGTTGGTCA | 0.994 ± 0.0094 |
| GGGTTGTATT | 0.991 ± 0.031 |
| GGGTTGTGTG | 0.991 ± 0.11 |
| GGGTTGTTTT | 0.9944 ± 0.0082 |
| GGGTTTCAGA | 1.01 ± 0.028 |
| GGGTTTGCGA | 1.02 ± 0.048 |
| GGGTTTGCTG | 1.01 ± 0.076 |
| GGGTTTGTAG | 1.01 ± 0.056 |
| GGGTTTTATG | 0.991 ± 0.033 |
| GGGTTTTGCG | 0.9735 ± 0.0082 |
| GGGTTTTGGG | 0.979 ± 0.064 |
| GGGTTTTGTA | 0.974 ± 0.018 |
| GGTAAAAAAG | 1 ± 0.028 |
| GGTAAAAGAT | 0.977 ± 0.015 |
| GGTAAACGCG | 0.977 ± 0.016 |
| GGTAAAGATA | 0.986 ± 0.019 |
| GGTAAAGGCG | 0.9621 ± 0.0048 |

| Sequence | switch fluorescence ratio |
| --- | --- |
| GGTAAATTGT | 1.01 ± 0.028 |
| GGTAACATGG | 1.01 ± 0.021 |
| GGTAATGGTA | 0.9702 ± 0.0045 |
| GGTAATTATT | 0.951 ± 0.067 |
| GGTAATTGAA | 0.9878 ± 0.0076 |
| GGTACACAGC | 1.02 ± 0.015 |
| GGTACGGAAA | 1.02 ± 0.016 |
| GGTACGGCAA | 1.09 ± 0.019 |
| GGTACGGGGA | 1.03 ± 0.051 |
| GGTACGTTTG | 0.993 ± 0.033 |
| GGTAGACGGT | 1.02 ± 0.049 |
| GGTAGAGATT | 1.02 ± 0.037 |
| GGTAGAGTAC | 1.02 ± 0.046 |
| GGTAGCAGCG | 1.05 ± 0.059 |
| GGTAGGAGAG | 0.987 ± 0.0057 |
| GGTAGGAGTA | 0.932 ± 0.051 |
| GGTAGGGATC | 1.017 ± 0.0042 |
| GGTAGGGCGA | 1.01 ± 0.026 |
| GGTAGGTAGG | 1.01 ± 0.038 |
| GGTATAAAGG | 0.996 ± 0.014 |
| GGTATACGTA | 0.935 ± 0.071 |
| GGTATAGTTG | 0.993 ± 0.041 |
| GGTATATGTC | 0.994 ± 0.05 |
| GGTATATTGG | 1.01 ± 0.012 |
| GGTATCAGGA | 0.978 ± 0.013 |
| GGTATGGACA | 0.997 ± 0.013 |

| Sequence | switch fluorescence ratio |
| --- | --- |
| GGTATGGATA | 1 ± 0.027 |
| GGTATGGGGT | 1.03 ± 0.058 |
| GGTATGGGTG | 1.023 ± 0.0055 |
| GGTATGGTGG | 1.01 ± 0.036 |
| GGTATTATTT | 0.995 ± 0.023 |
| GGTATTCGAG | 1.02 ± 0.0013 |
| GGTATTGAGG | 0.9871 ± 0.003 |
| GGTCACGTAT | 1.05 ± 0.014 |
| GGTCAGGGTA | 1.01 ± 0.04 |
| GGTCATATGC | 1.04 ± 0.013 |
| GGTCATGACG | 0.923 ± 0.046 |
| GGTCATGTTG | 0.997 ± 0.051 |
| GGTCATTTGT | 1 ± 0.041 |
| GGTCCGATTA | 1 ± 0.056 |
| GGTCCTAGAA | 0.9724 ± 0.0011 |
| GGTCCTAGTC | 0.946 ± 0.12 |
| GGTCCTGCAA | 1.76 ± 1.1 |
| GGTCCTGTGG | 1.005 ± 0.006 |
| GGTCGAAGGC | 0.9859 ± 0.0069 |
| GGTCGCACCA | 1.02 ± 0.033 |
| GGTCGCAGTT | 0.999 ± 0.022 |
| GGTCGCCCAG | 1.01 ± 0.035 |
| GGTCGGGCTT | 1.01 ± 0.034 |
| GGTCGTGCGG | 1 ± 0.018 |
| GGTCGTTGGT | 1.04 ± 0.022 |
| GGTCTACATT | 1.01 ± 0.032 |

| Sequence | switch fluorescence ratio |
| --- | --- |
| GGTCTAGACG | 1.01 ± 0.044 |
| GGTCTAGATA | 0.99 ± 0.026 |
| GGTCTAGATT | 0.988 ± 0.013 |
| GGTCTGGCTT | 0.988 ± 0.052 |
| GGTCTGGTGC | 1.031 ± 0.0048 |
| GGTCTTAGTT | 0.987 ± 0.035 |
| GGTCTTGGGC | 1.02 ± 0.026 |
| GGTCTTGTGG | 0.993 ± 0.032 |
| GGTCTTTCG | 0.9794 ± 0.0025 |
| GGTGAAATGT | 0.9561 ± 0.0059 |
| GGTGAAGCTG | 1.05 ± 0.14 |
| GGTGAATGCG | 0.9779 ± 0.0048 |
| GGTGACGTGG | 1.02 ± 0.012 |
| GGTGACTGCT | 0.9543 ± 0.0024 |
| GGTGAGAAAT | 1.01 ± 0.04 |
| GGTGAGGCTA | 1 ± 0.022 |
| GGTGAGGTTG | 0.971 ± 0.02 |
| GGTGATACGC | 1.001 ± 0.0035 |
| GGTGATATAG | 0.984 ± 0.021 |
| GGTGATCGGC | 0.986 ± 0.029 |
| GGTGATGGGC | 1.01 ± 0.062 |
| GGTGATGGTG | 0.976 ± 0.047 |
| GGTGATGTTG | 0.9611 ± 0.0055 |
| GGTGATTATT | 1.02 ± 0.029 |
| GGTGCATGGG | 1.01 ± 0.034 |
| GGTGCATGGT | 1.05 ± 0.011 |

| Sequence | switch fluorescence ratio |
| --- | --- |
| GGTGCCAAGT | 1.004 ± 0.0052 |
| GGTGCCACTT | 1.03 ± 0.024 |
| GGTGCCGCGG | 1.01 ± 0.023 |
| GGTGCCGTTT | 0.998 ± 0.026 |
| GGTGCCTGGG | 1 ± 0.0011 |
| GGTGCGCGGA | 1.034 ± 0.0064 |
| GGTGCTGGCA | 0.956 ± 0.051 |
| GGTGCTTTTG | 0.9888 ± 0.0085 |
| GGTGGAATGT | 0.983 ± 0.049 |
| GGTGGAGCTA | 1.03 ± 0.015 |
| GGTGGATGGC | 1 ± 0.013 |
| GGTGGGAGTG | 1.37 ± 0.66 |
| GGTGGGGCGC | 1.01 ± 0.035 |
| GGTGGGGTCC | 0.987 ± 0.011 |
| GGTGGGGTTT | 0.999 ± 0.054 |
| GGTGGGTATT | 0.966 ± 0.021 |
| GGTGGGTGCA | 0.985 ± 0.036 |
| GGTGGTGGCT | 1.04 ± 0.079 |
| GGTGGTGGGT | 0.986 ± 0.021 |
| GGTGTAAGAG | 0.987 ± 0.031 |
| GGTGTAGCGG | 0.982 ± 0.065 |
| GGTGTAGGTG | 0.9851 ± 0.0098 |
| GGTGTCATAT | 0.984 ± 0.024 |
| GGTGTGAGTG | 0.973 ± 0.025 |
| GGTGTGCTGT | 0.957 ± 0.031 |
| GGTGTGGAGG | 1.021 ± 0.0047 |

| Sequence | switch fluorescence ratio |
| --- | --- |
| GGTGTGGATC | 1.021 ± 0.0029 |
| GGTGTGGCGT | 1 ± 0.018 |
| GGTGTGGGGG | 1.01 ± 0.04 |
| GGTGTGTCGT | 1.02 ± 0.017 |
| GGTGTTAGG | 1 ± 0.016 |
| GGTGTTAGTC | 1.02 ± 0.036 |
| GGTGTTCACT | 0.995 ± 0.019 |
| GGTGTTGGAC | 0.997 ± 0.019 |
| GGTGTTGGG | 1.01 ± 0.019 |
| GGTGTTTATC | 1 ± 0.014 |
| GGTGTTTCGT | 0.9735 ± 0.001 |
| GGTGTTTGGG | 1 ± 0.039 |
| GGTGTTTTTT | 0.99 ± 0.011 |
| GGTTAAAGCG | 1.02 ± 0.013 |
| GGTTAAAGGT | 1.02 ± 0.026 |
| GGTTAAGCGG | 0.972 ± 0.021 |
| GGTTAAGGCA | 1.022 ± 0.0034 |
| GGTTAAGGGT | 0.9892 ± 0.0056 |
| GGTTAATTGT | 0.993 ± 0.033 |
| GGTTACGAAG | 1.01 ± 0.044 |
| GGTTACTGAG | 0.98 ± 0.018 |
| GGTTAGAACG | 1.02 ± 0.06 |
| GGTTAGGAGT | 0.99 ± 0.0081 |
